{"source": "patent US20100086538A1", "about": "(UCB, published 2010)", "binders": {"B1": {"name": "antibody CA028-497.g2 (antibody, human IgG4 S228P, kappa, V domains shown)", "VH": "EVQLVESGGGLVKPGGSLRLSCAASGVIFSDYYMAWVRQAPGKGLEWVASINFNADISYYRESVKGRFTISRDDSKNTLYLQMNSLKTEDTAVYYCTTDANRQNYDWFAYWGQGTLVTVSS", "VL": "AIQLTQSPSSLSASVGDRVTITCKASESVSSSMYSYMHWYQQKPGKAPKLLIYRASNLESGVPSRFSGSGSGTDFTLTISSLQPEDFATYYCQQSWTAPRTFGQGTKVEIKR", "notes": "Humanised IgG4 (S241P) kappa antibody made in CHO cells; also called CA048-497.g2; CA048 497.g2"}}, "key": {"[1]": {"biological_target": "T1, mammalian cell (CHO) derived human IL-17 (human, UniProt Q16552 24-155)", "T1 sequence (looked up)": "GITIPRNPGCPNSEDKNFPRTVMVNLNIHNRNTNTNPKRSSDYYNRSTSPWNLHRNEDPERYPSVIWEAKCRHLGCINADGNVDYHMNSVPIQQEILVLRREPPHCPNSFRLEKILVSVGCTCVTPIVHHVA", "test": "cell-based or functional assay"}, "[2]": {"biological_target": "T2, recombinant human IL-17 (R & D systems) (human, UniProt Q16552 20-155, limits assumed)", "T2 sequence (looked up)": "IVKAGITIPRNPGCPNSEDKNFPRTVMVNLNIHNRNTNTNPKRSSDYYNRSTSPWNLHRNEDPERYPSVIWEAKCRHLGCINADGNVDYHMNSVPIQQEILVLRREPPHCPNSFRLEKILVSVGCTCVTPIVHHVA", "test": "cell-based or functional assay"}, "[3]": {"biological_target": "T3, marmoset IL-17 (expressed transiently) (marmoset, UniProt A0ACM8QD00 24-153)", "T3 construct": "also called marmoset 06073130c; transient marmoset IL-17", "T3 sequence": "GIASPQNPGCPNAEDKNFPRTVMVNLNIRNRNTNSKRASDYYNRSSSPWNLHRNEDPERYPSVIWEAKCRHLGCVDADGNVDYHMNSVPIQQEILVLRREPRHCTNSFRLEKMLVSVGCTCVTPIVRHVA", "test": "BIAcore 3000, antibody captured by anti-human IgG Fc, IL-17 as analyte", "method": "(§1) BIA (Biamolecular Interaction Analysis) was performed using a BIAcore 3000 (BIAcore AB). Affinipure F(ab′)₂ Fragment goat anti-human IgG, Fc (Jackson ImmunoResearch) was immobilised on a CM5 Sensor Chip via amine coupling chemistry to a capture level of ≈8000 response units (RUs). HBS-EP buffer (10 mM HEPES pH 7.4, 0.15 M NaCl, 3 mM EDTA, 0.005% Surfactant P20, BIAcore AB) was used as the running buffer with a flow rate of 10 μL/min. A 10 μL injection of CA028_{—}497.g2 was used for capture by the immobilised anti-human IgG-F(ab)₂. IL-17 was titrated over the captured CA028_{—}497.g2 at various concentrations at a flow rate of 30 μL/min. The surface was regenerated by a 30 μL injection of 40 mM HCl, followed by a 10 μL injection of 5 mM NaOH.\n(§2) Background subtraction binding curves were analysed using the BIAevaluation software (version 3.2) following standard procedures. Kinetic parameters were determined from the fitting algorithm.\n(§3) The concentrations of IL-17 from different non-human primate (NHP) species expressed transiently were estimated relative to human IL-17 and these concentrations were then used to determine the affinities of the IL-17s. The affinity was measured at IL-17 concentrations at or below 25 nM. […] The concentration of transient cynomolgus IL-17 and transient marmoset IL-17 was estimated based on equivalent human IL-17 binding."}, "[4]": {"biological_target": "T4, cynomolgus monkey IL-17 (expressed transiently) (cynomolgus monkey, UniProt A0A2K5TTB0 24-155)", "T4 construct": "also called transient cynomolgus IL-17", "T4 sequence": "T1 sequence (looked up) with T3A, P8S, N34S, I77V, N78K, P104R", "test": "BIAcore 3000, antibody captured by anti-human IgG Fc, IL-17 as analyte", "method": "as §1, §2, §3"}, "[5]": {"biological_target": "T2, recombinant human IL-17 (R & D systems)", "test": "BIAcore 3000, antibody captured by anti-human IgG Fc, IL-17 as analyte", "method": "as §1, §2, §3"}, "[6]": {"biological_target": "T3, marmoset IL-17 (expressed transiently)", "test": "BIAcore 3000, antibody captured by anti-human IgG Fc, IL-17 as analyte; analyte concentration estimated", "method": "as §1, §2, §3"}, "[7]": {"biological_target": "T4, cynomolgus monkey IL-17 (expressed …)", "test": "BIAcore 3000, antibody captured by anti-human IgG Fc, IL-17 as analyte; analyte concentration estimated", "method": "as §1, §2, §3"}, "[8]": {"biological_target": "T4, cynomolgus monkey IL-17 (expressed …)", "test": "BIAcore 3000, antibody captured by anti-human IgG Fc, IL-17 as analyte; analyte concentration estimated; transient cynomolgus IL-17, concentration estimated", "method": "as §1, §2, §3"}}, "note": "Where a chain is given by its changes, count along the chain named. Names and notes keep the numbering of the source. Values joined by “and” are separate entries in the source; they are usually repeats but may differ in a detail not shown here. Identical values can stand only once.", "data": [{"binder": "B1", "values": [{"measurement": "IC50, inhibition of IL-17 induced IL-6 production in Hela cells", "setting": "[1]", "value": "103 ng/mL and 0.7 nM"}, {"measurement": "IC50, inhibition of IL-17 induced IL-6 production in Hela cells", "setting": "[2]", "value": "51 ng/mL and 0.34 nM"}, {"measurement": "koff", "setting": "[3]", "value": "1.46e-05", "unit": "s⁻¹"}, {"measurement": "koff", "setting": "[4]", "value": "1.68e-05", "unit": "s⁻¹"}, {"measurement": "Kd", "setting": "[5]", "value": "6.28 pM and 6.3 pM"}, {"measurement": "koff", "setting": "[5]", "value": "7.38e-06", "unit": "s⁻¹"}, {"measurement": "kon", "setting": "[5]", "value": "1.86e+06", "unit": "M⁻¹ s⁻¹"}, {"measurement": "Kd", "setting": "[6]", "value": 12.9, "unit": "pM"}, {"measurement": "kon", "setting": "[6]", "value": "1.13e+06", "unit": "M⁻¹ s⁻¹"}, {"measurement": "Kd", "setting": "[7]", "value": 10.7, "unit": "pM"}, {"measurement": "kon", "setting": "[8]", "value": "1.57e+06", "unit": "M⁻¹ s⁻¹"}]}]}
